Reference: the DeepSol protein solubility set

Experiment: soluble on expression in E. coli; label from the status in PepcDB or PDB records

Sequence | soluble on expression in E. coli
MLPRFADIFQQGNRWLNWLEKQPEGAVRPVVIESVTKIMACGTTLMGYTNRCCSSPDCCHTKKVCFRCKSRSCPHCVVKAGAQWIQYLLSLVPYCPWQHIVFTLPCQYWSLVFHNRWLLAKMSRIAADVILEICHQADVEPGIFTVIHTWGRDQQWHPHIHLSTTAGGVTSGHTWKNLHFYARKVMSMWRYRITRLLSRKYPYLVMPDALAAEGSSKREWNRFLDTHYRRGWNVNVSRVMDNATHVAVYFGSYLKKPPVPMSRLEHYAGQDEIGLRYNSHRTKREEYLLMSGDESMERFSWHVADKGFRMVRYYVFLSPAKRRLLEEVVYIITETVRKTAMQITWRGMYQRLLKVDPLKCVLCGSQMRFTGLKRGYRLAEQVLMHEPLARMRWCG | not soluble
MLQDAVEDLGCELWGIECQRVGRFMTVRLFIDKDGGVTVDDCADVSRQVSAILDVEDPIADKYNLEVSSPGLDRPLFTLPQFERYIGQDIAVHLRIPVMERRKWQGKLERIEKDMITLIVDDQEQILVFGNIQKANVVAKF | not soluble
MLQDHKITFLGAGSMAESIIAGLLSKKLLLPSQVIATNLCDEAKLTKLEDRYGICTTQNRQEAVRQGTIIFLAMKPKNIEEAIEEIRGEITEKQLFISVLAGTTTSYIETLLAHEVPVVRTMPNTSAKVGASATGLCGGRYANASHVKLATLIFTAIGTVTEVTEDKLDAVTGLAGSGPAYFYYMVEAMERAAVQSGLTESEAKAFISQTLIGTGKRLEQTSKTAEELYKEVMSPGGTTEAGLRVLEQQQMQQAIEEAITAAINRSRELGSTPSLEIKKLEHHHHHH | soluble
MLQGFRWSPHGFWVCQARFFNKKIRQRTHYEVLGVESTATLSEIKSAFYAQSKKVHPDNSSEESATASFLELKNAYDVLRRPADRRLYDYQLRGGGGRYPNGGQRYQYPNTAPQYDFSRDWSTYWSQNPDNSRSSREERDKSSREFMKSI | not soluble
MLRFRCILSTSRSIMSGVKEFDYLVIGGGSGGIASARRAREFGVSVGLIESGRLGGTCVNVGCVPKKVMYNCSLHAEFIRDHADYGFDVTLNKFDWKVIKKSRDEYIKRLNGLYESGLKGSSVEYIRGRATFAEDGTVEVNGAKYRGKNTLIAVGGKPTIPNIKGAEHGIDSDGFFDLEDLPSRTVVVGAGYIAVEIAGVLANLGSDTHLLIRYDKVLRTFDKMLSDELTADMDEETNPLHLHKNTQVTEVIKGDDGLLTIKTTTGVIEKVQTLIWAIGRDPLTKELNLERVGVKTDKSGHIIVDEYQNTSAPGILSVGDDTGKFLLTPVAIAAGRRLSHRLFNGETDNKLTYENIATVVFSHPLIGTVGLTEAEAVEKYGKDEVTLYKSRFNPMLFAVTKHKEKAAMKLVCVGKDEKVVGVHVFGVGSDEMLQGFAVAVTMGATKKQFDQTVAIHPTSAEELVTMRGGVKPE | not soluble
MLRIDCGGQDTVTKIVAERLMMKTDGRLARMLHVLVHMGLLGGRETSERIAQMLNTNPVVVRRTLGALRESGIVVSEGGRGGGWKLIRSLDQITVLDVQRALVEGQMLPAPLSKDHPNCPVERASNAVLERAHCLAEAALRTAYSETTLAQIAETAVATK | not soluble
MLRLQMTDGHISCTAVEFSYMSKISLNTPPGTKVKLSGIVDIKNGFLLLNDSNTTVLGGEVEHLIEKWELQRSLSKHNRSNIGTEGGPPPFVPFGQCVSRVQVDSRELDRRKTLQVTMPVKPTNDNDEFEKQRTAAIAEVAKSKETKTFGGGGGGARSNLNMNAAGNRNREVLQKEKSTKSEGKHEGVYRELVDEKALKHITEMGFSKEASRQALMDNGNNLEAALNVLLTSNKQKPVMGPPLRGRGKGRGRIRSEDEEDLGNARPSAPSTLFDFLESKMGTLNVEEPKSQPQQLHQGQYRSSNTEQNGVKDNNHLRHPPRNDTRQPRNEKPPRFQRDSQNSKSVLEGSGLPRNRGSERPSTSSVSEVWAEDRIKCDRPYSRYDRTKDTSYPLGSQHSDGAFKKRDNSMQSRSGKGPSFAEAKENPLPQGSVDYNNQKRGKRESQTSIPDYFYDRKSQTINNEAFSGIKIEKHFNVNTDYQNPVRSNSFIGVPNGEVEMPLKGRRIGHIKPAGPVTAVPCDDKIFYNSGPKRRSGPIKPEKILESSIPMEYAKMWKPGDECFALYWEDNKFYRAEVEALHSSGMTAVVKFIDYGNYEEVLLSNIKPIQTEAWEEEGTYDQTLEFRRGGDGQPRRSTRPTQQFYQPPRARN | not soluble
MLRRGYKASERRRHLSERLSWHQDQALSSSIYLLREMGPTGFLLREEEPEYMDFRVFLGNPHVCNCSTFPKGGELCKHICWVLLKKFELPRNHESALQLGLGEREISDLLRGIHRVQTPQPGTNDENEHVEEDGYIKQKEIDSEDICSICQELLLEKKLPVTFCRFGCGNSIHIKCMKILANYQSTSNTSMLKCPLCRKEFAPLKLILEEFKNSSKLVAAAEKERLDKHLGIPCNNCKQFPIEGKCYKCTECIEYHLCQECFDSYCHLSHTFTFREKRNQKWRSLEKRADEVVKYIDTKNETEEKMSHFQEKQGQVYTPKHIVRSLPLQLITKNSKLLAPGYQCLLCLKAFHLGQHTRLLPCTHKFHRKCIDNWLFHKCNSCPIGGQVIYNPLTWKNSAVNGQAHQSVSNRDIIHLSKQKEPDLFIPGTGLVLKQNRLGILPSIPQCNFDELNTPQSPKDAYENTTIDNLCSIKLDNSNSKKLTYEYKISQHFPRYLQDLPTVSFGKIPSQTLLPPIVHKNIVCPTAMESPCISGKYHTSLSRVTKGCKCNNHNLKKTPATKIREDNKRSTLLPEDFNLIVNWSTAKLSLSKRYSNCMGEITRKCSHLSRQPVSHSVNTKSTELSLIIEGVQL | soluble
MLRSSLLPFSYLYEKIINFRNTLYDKGFLKIKKLPVPVISVGNLSVGGSGKTSFVMYLADLLKDKRVCILSRGYKRKSKGTLIVSEYGNLKVSWEEAGDEPYLMAKLLPHVSVVASEDRYKGGLLALEKLSPEVFILDDGFQHRKLHRDLNILLLKKKDLKDRLLPAGNLREPLKEIRRADALVLTYQEVEPFEFFTGKPTFKMFREFCCLLNSDFEEVPFDILKEREVIAFSGLGDNGQFRKVLKNLGIKVKEFMSFPDHYDYSDFTPEEGEIYLTTPKDLIKLQGYENVFALNFKVKLEREEKLKKLIYRIFYLEHHHHHH | soluble
MLRTYFPEVVLFLHAFPLNKEMYRYQFCAFEEEGIPYVALDYPGFGDAPNLPGEYTVERLTDYVVNELRKFRVKKVIPIGDSMGGYIMFDMWRRYREMIKGFVFVATRAEADTEEGKKARYALIEKVQKEGKEFLIEAMLENQTSPATKKDENKMRTLRCIMEKATREGIVKTLKALAERKDNTDLLPSIDVPTLVIAGKDDERVTPPEIVKKIAEGIKGAKYYELENSAHLPPFENPEKFNEVVIPFVKDLLKTP | soluble
MLRTYTVLLLIAHAHVQSHFYYPCSARIFWKIHALINNTDGFVTREVKLGYFIGYKEHRSSAERKANAHGFHGFFFSEITHTFSEMIESLEHANTGAFDDIRTDSETHFFDLDDAERMIERDSIERTNNLLENSRKFKNVRDETHRGKTRRGETHRGETHRGETHRDETHRGETHRDETHRGETHRGETHRGETHRGETHLDETHRGETHRGDTHRGETHRGETHRDDTFRGETLRGETHLDETHRGETHRDETHRGETHRDETHRDETHRDETHRGETHRGETHRGETHRDDTFRGETFRGETHRDETHRGETHRDETHRGETHRGETHRGETHRGETHRGETHRGETHRGETHRGETHRDETFRGETHRGETHRGETHRDDTHRGETHRGETHRGETHRGETHRGETHRGETHRGETHRGETHRGETHRGETHRGETHCDDTHRGETRRAETHRGETHRGETHRDETHRDDTHRGETHRGETHRGETHRGETHRGETHRDETHRGETHRGDTHRGETHRGETHRGETHRGETHRGETHRGETHRGETHRGETHRGETHRDDTHRGETRRAETHRGETHRGETHRDETHRGETHRGETHRGETHRGETHRGETHRDETHRDDTFRGETLRGETHRDETHRGETHRDDTFRGETLRGETHRDETHRGETHRDETHRGETHRGETHRGETHRGETHRGETHRGETHRGETLRGETRCDDTQRGETRRAETHRGETLRGETHRDESHRGETHRGETHRGETHRGETHRGETHRDETHRDDTFRGETLRGETHRDETHRGETHRDDTFRGETLRGETHLDETHRGETHRDETHRGETHRGETHRGETHRDETHRGETHRGETHRGETHRGETHRAETFRGETHRAETHRGETNRGETHRGETHRGETHRGETNRGETHRGETHRGETHRGDTHRAETHRDETHRGETNRDETHRGETHRGETHRGDTNRGETHRGETFRGETHRGETHRGETHRGETHRGETHRGETHRGETHRGETHRDDTFRGETHRGETHCGETHRGETHRGETLRGETLRGETHRDETHRGETLRDETHRGETLRGETHRGETLRGETHRGETHRDDTFRGETLRGETHLDETHRGETHRDETHRGETHRGETHRGETHRGETHRGETHRGETHRGETHRDETHRDDTFRGETLRGETLRDETHRGETHRDDTFRGETHRDETHRGETLRGETHRDETHRDETHRDDTHRGETLRGETHLDETHRGETHRDETHRGETHLDETHRGETHRDETHRGETHRDETHRGETHRGETHVWKARENSGMF | not soluble
MLSLKLVSQLFKQSLASGNMAIVNTAGLKYFAPPIKYQNVEQPERPKLRVIERQPQLPPNIRPPKMQKRLRYMRGPEMVHNTLLHKQYAIVATGGGRLRWGHYEMMRLTIGRKMNVNTMFATWRVPAPWQPITKKGQGQRMGGGKGAIDHYVTPIKAGRVIVEIAGKCEFVEVKQFLQQVANQLPFQATVVSQEMLDEQRVAEEEQTRQNENPFTMKYVIQNNLSGCHRWLSPVDHKWFGKHLLEHHHHHH | not soluble
MLSPEQDLNRHADPFPFNEEPSSQDLDSLRDLVTEAETLQDMVTGGLSIDAILNVLDATGEDETIWPVEKTPPDILHLLSPEYAPETAHNTVLPDLTRKEHRIIGIDSHYRINPAQHGEIYHDKQ | not soluble
MLSPITLEALHILDAIERRGSFAAAANELNRAPSSLSYQIQKLEQDLDLMIFDRSGHRANFTEAGKLILERGRAILAATEKLVNDATLLANGWELDITIALDGIVPAANLFPMVEALGNISKTRVRIQDEILAGCWEALATGRADLLICPRIEALPQDVKAETIGTMKMIWVAAPTHYVHRRSGEFNEEAREKYRAIAIADTAREQPAMSVNILQRQPRLTVSNLDAKCKALVAGLGIGTLPLQVAQPYIDKGELKAIHGSEDLEMDIVLAWRRNQMGEAKSWCIQYLKKNWRWE | not soluble
MLSRKIIEESDIYLATSTRDPELFPLVIDHGEGVWIYDVDGNKYLDFTSGIGVNNLGWPSHPEVIKIGIEQMQKLAHAAANDFYNIPQLELAKKLVTYSPGNFQKKVFFSNSGTEAIEASIKVVKNTGRKYIIAFLGGFHGRTFGSISLTASKAVQRSIVGPFMPGVIHVPYPNPYRNPWHINGYENPSELVNRVIEFIEDYIFVNLVPPEEVAGIFFEPIQGEGGYVIPPKNFFAELQKLAKKYGILLVDDEVQMGLGRTGKLFAIENFNTVPDVITLAKALGGGIMPIGATIFRKDLDFKPGMHSNTFGGNALACAIGSKVIDIVKDLLPHVNEIGKIFAEELQGLADDVRGIGLAWGLEYNEKKVRDRIIGESFKRGLLLLPAGRSAIRVIPPLVISEEEAKQGLDILKKVIKVVK | soluble
MLTDPIADMLTRIRNATRVYKESTDVPASRFKEEILRILAREGFIKGYERVDVDGKPYLRVYLKYGPRRQGPDPRPEQVIHHIRRISKPGRRVYVGVKEIPRVRRGLGIAILSTSKGVLTDREARKLGVGGELICEVW | soluble
MLTEQQFRDEIRGFVDKMNENNFHWQLKEIGKYARETHLKTLSDGRVITSETHILYNSTYQVPTIWFNFFENNGSPLPFRTVIRDVLNISETEESEASIRSRISHYEHPFMGVLYYNIHPCNTSNIMKELNTDRSYLMSWFSVYGQQIGLKLPDRVL | not soluble
